From paper PMC12120360, “Lysine acetylation modulates s‐OPA1 GTPase activity and oligomerization in mitochondrial membrane remodeling” (Protein Science : A Publication of the Protein Society, 2025) come the findings set out here.

The stoichiometry N is the number of molecules, sites or subunits per partner or assembly.

The chains are these.
B1: short form of human OPA1 (residues 195–960) wild-type (domain or fragment, UniProt O60313-1 195-960, looked up)
chain: ATDRGSESDKHFRKVSDKEKIDQLQEELLHTQLKYQRILERLEKENKELRKLVLQKDDKGIHHRKLKKSLIDMYSEVLDVLSDYDASYNTQDHLPRVVVVGDQSAGKTSVLEMIAQARIFPRGSGEMMTRSPVKVTLSEGPHHVALFKDSSREFDLTKEEDLAALRHEIELRMRKNVKEGCTVSPETISLNVKGPGLQRMVLVDLPGVINTVTSGMAPDTKETIFSISKAYMQNPNAIILCIQDGSVDAERSIVTDLVSQMDPHGRRTIFVLTKVDLAEKNVASPSRIQQIIEGKLFPMKALGYFAVVTGKGNSSESIEAIREYEEEFFQNSKLLKTSMLKAHQVTTRNLSLAVSDCFWKMVRESVEQQADSFKATRFNLETEWKNNYPRLRELDRNELFEKAKNEILDEVISLSQVTPKHWEEILQQSLWERVSTHVIENIYLPAAQTMNSGTFNTTVDIKLKQWTDKQLPNKAVEVAWETLQEEFSRFMTEPKGKEHDDIFDKLKEAVKEESIKRHKWNDFAEDSLRVIQHNALEDRSISDKQQWDAAIYFMEEALQARLKDTENAIENMVGPDWKKRWLYWKNRTQEQCVHNETKNELEKMLKCNEEHPAYLASDEITTVRKNLESRGVEVDPSLIKDTWHQVYRRHFLKTALNHCNLCRRGFYYYQRHFVDSELECNDVVLFWRIQRMLAITANTLRQQLTNTEVRRLEKNVKEVLEDFAEDGEKKIKLLTGKRVQLAEDLKKVREIQEKLDAFIEALHQEK
modifications: acetyl-lysine at K342 only (endogenous, acquired during expression; found by mass spectrometry)
notes: Optic Atrophy 1 (OPA1), human, short form (s-OPA1), residues 195-960; domain model of isoform 1; Gene bought from Genscript in the pGS-21a vector; also called s-OPA1 WT; s-OPA1; source: E. coli BL21 (DE3), purified (glutathione resin, 3C protease cleavage, size exclusion chromatography)
B2: s-OPA1 K328R (domain or fragment, human, UniProt O60313-1 195-960, looked up)
chain: B1 chain with K134R
modifications: endogenous lysine acetylation, sites listed in Figure 2c
notes: Optic Atrophy 1 (OPA1), human, short form (s-OPA1), residues 195-960; domain model of isoform 1; Made as a deacetylation mimetic; source: E. coli BL21 (DE3), purified (glutathione resin, 3C protease cleavage, size exclusion chromatography)
B3: s-OPA1 K663R (domain or fragment, human, UniProt O60313-1 195-960, looked up)
chain: B1 chain with K469R
modifications: endogenous lysine acetylation, sites listed in Figure 2c
notes: Optic Atrophy 1 (OPA1), human, short form (s-OPA1), residues 195-960; domain model of isoform 1; Gene bought from Genscript in the pGS-21a vector; source: E. coli BL21 (DE3), purified (glutathione resin, 3C protease cleavage, size exclusion chromatography)
B4: s-OPA1 K579R (domain or fragment, human, UniProt O60313-1 195-960, looked up)
chain: B1 chain with K385R
modifications: endogenous lysine acetylation, sites listed in Figure 2c
notes: as for B3
B5: s-OPA1 K579Q (domain or fragment, human, UniProt O60313-1 195-960, looked up)
chain: B1 chain with K385Q
modifications: endogenous lysine acetylation, sites listed in Figure 2c
notes: as for B3
B6: s-OPA1 K772Q (domain or fragment, human, UniProt O60313-1 195-960, looked up)
chain: B1 chain with K578Q
modifications: acetyl-lysine at K713 only (endogenous, by mass spectrometry)
notes: as for B3
B7: s-OPA1 K342Q (domain or fragment, human, UniProt O60313-1 195-960, looked up)
chain: B1 chain with K148Q
modifications: 11 additional acetylation sites (endogenous; listed in Figure 2c)
notes: as for B3
B8: s-OPA1 K663Q (domain or fragment, human, UniProt O60313-1 195-960, looked up)
chain: B1 chain with K469Q
modifications: endogenous lysine acetylation, sites listed in Figure 2c
notes: as for B3
B9: s-OPA1 K772R (domain or fragment, human, UniProt O60313-1 195-960, looked up)
chain: B1 chain with K578R
modifications: 10 endogenous acetylated lysine residues, including K328 and K342 (listed in Figure 2c)
notes: as for B3
B10: s-OPA1 K328Q (domain or fragment, human, UniProt O60313-1 195-960, looked up)
chain: B1 chain with K134Q
modifications: acetyl-lysine at K713 only (endogenous, by mass spectrometry)
notes: Optic Atrophy 1 (OPA1), human, short form (s-OPA1), residues 195-960; domain model of isoform 1; Gene bought from Genscript in the pGS-21a vector; also called acetylation mimetic mutant K328Q; source: E. coli BL21 (DE3), purified (glutathione resin, 3C protease cleavage, size exclusion chromatography)
B11: s-OPA1 K342R (domain or fragment, human, UniProt O60313-1 195-960, looked up)
chain: B1 chain with K148R
modifications: 18 acetylated lysine sites (endogenous; listed in Figure 2c)
notes: as for B3

Changes are numbered by the printed parent chain. Names may count otherwise.

This series deals with the molecule itself. The series can be described thus: mass photometry; protein in solution at 75 nM final; 20 mM HEPES-NaOH pH 7.5, 130 mM NaCl, 10 mM KCl, 2 mM MgCl2, 2 mM DTT, 2% glycerol; Refeyn mass photometer; mass measured three times for each protein.
With B1, the “stoichiometry N” value is 2.

For the protein B2, the “stoichiometry N” value stood at 2.

As for B3, the “stoichiometry N” value was determined as 2.

B4: the “stoichiometry N” value was found to be 2.

With B5, the “stoichiometry N” value amounted to 2.

On to B6, for which the “stoichiometry N” value came to 2.

For the protein B7, the “stoichiometry N” value turned out to be 2.

Take B8: the “stoichiometry N” value came to 2.

On to B9, for which the “stoichiometry N” value stood at 2.

Take B10: the “stoichiometry N” value was 2.

As to B11, the “stoichiometry N” value was 2.
